The source of these data is article PMC8887654 (ACS infectious diseases, 2022).

The test system of one data set is MERS PLpro. The conditions noted are these: cited from earlier work.
The test system of a further data set is BtSCoV-Rf1.2004 PLpro. The class given is biochemical.
A further data set relates to SARS-2 PLpro. The conditions noted are these: cited from earlier work.
For another data set, the system named is SARS PLpro. The following applies: cited from earlier work.
Another data set concerns subgroup 2b PLpros. Nature of the data set: PLpro inhibition IC50, text summary over all three PLpros. The class given is biochemical. The conditions noted are these: read-out: IC50 values; text summary for the most potent inhibitors.
The subject of the next data set is BEAS-2B cells. The following applies: human.
The test system of the next data set is RPTEC. The following applies: human.
Another data set relates to MHV PLP2. The conditions noted are these: cited from earlier work.

Where “and” joins values, the source holds several entries; their conditions need not be identical. Equal entries are not always repeated. Bounds are passed on as bounds.

As a reminder, the Km is the concentration of substrate that gives half-maximal velocity. With “human ISG15-7-amino-4-methylcourmarin [ISG15-AMC]”, the Kcat in the data set with MERS PLpro is 0.543 ± 0.03 s⁻¹; with SARS-2 PLpro, 0.667 ± 0.03 s⁻¹; with SARS PLpro, 7.27 s⁻¹ and 7.27 ± 0.667 s⁻¹. Also, the results for the Km in the data set on MERS PLpro, in the data set on SARS-2 PLpro and in the data set on SARS PLpro were 3.3 ± 0.5 µM, 3.9 ± 0.5 µM and 15.1 ± 2.4 µM, respectively. In addition, the “observed rate (no maximum turnover calculable)” value with BtSCoV-Rf1.2004 PLpro is 595 min⁻¹.

As usually defined, the IC50 is the point on the concentration scale where inhibition reaches its midpoint. `Cc1ccc(N)cc1C(=O)N[C@H](C)c1cccc2ccccc12` [GRL0617, 5-Amino-2-methyl-N-[(R)-1-(1-naphthyl)ethyl]benzamide]: the IC50 in the data set on subgroup 2b PLpros is < 10 µM. Besides, the “CC50 relative to IC50” value in the data set on BEAS-2B cells and with RPTEC was “more than five times the IC50” each time.

In the case of “Ubiquitin–7-amino-4-methylcourmarin [Ub-AMC]”, the Kcat with MERS PLpro is 0.313 ± 0.02 s⁻¹; in the data set on BtSCoV-Rf1.2004 PLpro it was 0.232 ± 0.0067 s⁻¹; in the data set on SARS-2 PLpro, 0.167 ± 0.013 s⁻¹; with MHV PLP2, 0.83 ± 0.0483 s⁻¹; in the data set with SARS PLpro, 1.26 ± 0.135 s⁻¹. Further, the Km in the data set with MERS PLpro is 14.3 ± 2 µM; with BtSCoV-Rf1.2004 PLpro, 14.3 ± 0.9 µM; in the data set on SARS-2 PLpro, 7.9 ± 1.4 µM; in the data set with MHV PLP2, 1.3 ± 0.2 µM; in the data set with SARS PLpro, 50.6 ± 7.4 µM.
